# According to US6137031, “DNA binding proteins that interact with NPR1” (Duke University, dated 2000):
# B1: TGA6 (full-length, two-hybrid prey in pJG4-5) (other)
# chain: MADTSSRTDVSTDGDTDHRDLGSDRGHMHAAASDSSDRSKDKLDQKTLRRLAQNREAARKSRLRKKAYVQQLENSRLKLTQLEQELQRARQQGVFISSSGDQAHSTGGNGALAFDAEHSRWLEEKNRQMNELRSALNAHAGDTELRIIVDGVMAHYEELFRIKSNAAKNDVFHLLSGMWKTPAERCFLWLGGFRSSELLKLLANQLEPMTERQVMGINSLQQTSQQAEDALSQGMESLQQSLADTLSSGTLGSSSSDNVASYMGQMAMAMGQLGTLEGFIRQADNLRLQTLQQMLRVLTTRQSARALLAIHDYSSRLRALSSLWLARPRE
# B2: NPR1 1-177 (pEGNPR11-177) (other)
# chain: MDTTIDGFADSYEISSTSFVATDNTDSSIVYLAAEQVLTGPDVSALQLLSNSFESVFDSPDDFYSDAKLVLSDGREVSFHRCVLSARSSFFKSALAAAKKEKDSNNTAAVKLELKEIAKDYEVGFDSVVTVLAYVYSSRVRPPPKGVSECADENCCHVACRPAVDFMLEVLYLAFIF
# B3: AHBP-1b (full-length, two-hybrid prey in pJG4-5) (other)
# chain: MADTSPRTDVSTDDDTDHPDLGSEGALVNTAASDSSDRSKGKMDQKTLRRLAQNREAARKSRLRKKAYVQQLENSRLKLTQLEQELQRARQQGVFISGTGDQAHSTGGNGALAFDAEHSRWLEEKNKQMNELRSALNAHAGDSELRIIVDGVMAHYEELFRIKSNAAKNDVFHLLSGMWKTPAERCFLWLGGFRSSELLKLLANQLEPMTERQLMGINNLQQTSQQAEDALSQGMESLQQSLADTLSSGTLGSSSSGNVASYMGQMAMAMGKLGTLEGFIRQADNLRLQTLQQMIRVLTTRQSARALLAIHDYFSRLRALSSLWLARPRE
# Key:
# [1] = biological target: full-length tomato NPR1 homolog (tomato); test: yeast two-hybrid, β-galactosidase reporter
# [2] = biological target: full-length A. thaliana NPR1 (two-hybrid bait in pEG202) (Arabidopsis thaliana) (UniProt P93002); test: yeast two-hybrid, β-galactosidase reporter
# npr1-1 mutant NPR1 bait = npr1-1 mutant NPR1 bait (Arabidopsis thaliana, UniProt P93002); test: yeast two-hybrid, β-galactosidase activity
# npr1-2 mutant NPR1 bait = npr1-2 mutant NPR1 bait (Arabidopsis thaliana, UniProt P93002); test: yeast two-hybrid, β-galactosidase activity
# [3] = biological target: B3; test: yeast two-hybrid, β-galactosidase activity
# [4] = biological target: NPR1 1-432 (pEGNPR11-432) (Arabidopsis thaliana) (UniProt P93002); test: yeast two-hybrid, β-galactosidase reporter
# [5] = biological target: NPR1 178-593 (pEGNPR1178-593) (Arabidopsis thaliana) (UniProt P93002); test: yeast two-hybrid, β-galactosidase reporter
units of β-galactosidase activity [2] [units],binding result (npr1-1 mutant NPR1 bait),binding result (npr1-2 mutant NPR1 bait),Molecule,further results
,,,NIF1 (NPR-1-Interacting Factor 1),units of β-galactosidase activity [1]: 1290 units
7.6,,,"OBF5 (full-length, two-hybrid prey in pJG4-5) (from UniProt Q39163)",
372,no binding,no binding,B1,
,,,B2,binding result [3]: no binding
673,no binding,no binding,B3,units of β-galactosidase activity [4]: 522 units; units of β-galactosidase activity [5]: 17.6 units
